{
  "source": "patent US20260374878",
  "about": "(published 2026)",
  "binders": {"B1": {"name": "CLL1-VHH-16-hFc (antibody)", "chain 1": "DVQLQESGGGLVQPGGSLRLSCAASGFTFGSYDMTWVRQAPGKGPEWVSGINSGGSSTYYADSVKGRFTISRDNAKNTLYLQMNSLKPEDTAVYYCATIDRLSTVVAGTYQPSEEYDYWGQGTQVTVSS", "chain 2": "not shown"}},
  "target": "T1, CLL1 (expressed on K562-CLL1 cells) (human, UniProt Q5QGZ9)",
  "T1 chain": "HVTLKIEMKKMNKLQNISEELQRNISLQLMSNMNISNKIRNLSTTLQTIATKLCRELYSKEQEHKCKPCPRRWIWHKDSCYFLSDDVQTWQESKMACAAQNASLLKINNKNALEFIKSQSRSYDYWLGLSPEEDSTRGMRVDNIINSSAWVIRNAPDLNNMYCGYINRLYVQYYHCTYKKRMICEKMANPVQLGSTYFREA",
  "test": "FACS, K562-CLL1 cells, room temperature, bivalent Fc fusion",
  "data": [
    {"binder": "B1", "values": [
      {"measurement": "Kd", "value": 5, "unit": "nM"}
    ]}
  ]
}
